B1: SRC kinase associated phosphoprotein 1 (SKAP1), wild type, N2-fused [human] / FRK, N1-fused [not stated] (parent)
chain 1: MQAAALPEEIRWLLEDAEEFLAEGLRNENLSAVARDHRDHILRGFQQIKARYYWDFQPQGGDIGQDSSDDNHSGTLGLSLTSDAPFLSDYQDEGMEDIVKGAQELDNVIKQGYLEKKSKDHSFFGSEWQKRWCVVSRGLFYYYANEKSKQPKGTFLIKGYGVRMAPHLRRDSKKESCFELTSQDRRSYEFTATSPAEARDWVDQISFLLKDLSSLTIPYEEDEEEEEKEETYDDIDGFDSPSCGSQCRPTILPGSVGIKEPTEEKEEEDIYEVLPDEEHDLEEDESGTRRKGVDYASYYQGLWDCHGDQPDELSFQRGDLIRILSKEYNMYGWWVGELNSLVGIVPKEYLTTAFEVEER
chain 2: MSNICQRLWEYLEPYLPCLSTEADKSTVIENPGALCSPQSQRHGHYFVALFDYQARTAEDLSFRAGDKLQVLDTLHEGWWFARHLEKRRDGSSQQLQGYIPSNYVAEDRSLQAEPWFFGAIGRSDAEKQLLYSENKTGSFLIRESESQKGEFSLSVLDGAVVKHYRIKRLDEGGFFLTRRRIFSTLNEFVSHYTKTSDGLCVKLGKPCLKIQVPAPFDLSYKTVDQWEIDRNSIQLLKRLGSGQFGEVWEGLWNNTTPVAVKTLKPGSMDPNDFLREAQIMKNLRHPKLIQLYAVCTLEDPIYIITELMRHGSLQEYLQNDTGSKIHLTQQVDMAAQVASGMAYLESRNYIHRDLAARNVLVGEHNIYKVADFGLARVFKVDNEDIYESRHEIKLPVKWTAPEAIRSNKFSIKSDVWSFGILLYEIITYGKMPYSGMTGAQVIQMLAQNYRLPQPSNCPQQFYNIMLECWNAEPKERPTFETLRWKLEDYFETDSSYSDANNFIR
B2: SRC kinase associated phosphoprotein 1 (SKAP1), wild type, N2-fused [human] / SRMS, N1-fused [not stated] (parent)
chain 1: B1 chain 1
chain 2: MEPFLRRRLAFLSFFWDKIWPAGGEPDHGTPGSLDPNTDPVPTLPAEPCSPFPQLFLALYDFTARCGGELSVRRGDRLCALEEGGGYIFARRLSGQPSAGLVPITHVAKASPETLSDQPWYFSGVSRTQAQQLLLSPPNEPGAFLIRPSESSLGGYSLSVRAQAKVCHYRVSMAADGSLYLQKGRLFPGLEELLTYYKANWKLIQNPLLQPCMPQKAPRQDVWERPHSEFALGRKLGEGYFGEVWEGLWLGSLPVAIKVIKSANMKLTDLAKEIQTLKGLRHERLIRLHAVCSGGEPVYIVTELMRKGNLQAFLGTPEGRALRLPPLLGFACQVAEGMSYLEEQRVVHRDLAARNVLVDDGLACKVADFGLARLLKDDIYSPSSSSKIPVKWTAPEAANYRVFSQKSDVWSFGVLLHEVFTYGQCPYEGMTNHETLQQIMRGYRLPRPAACPAEVYVLMLECWRSSPEERPSFATLREKLHAIHRCHP
B3: SRC kinase associated phosphoprotein 1 (SKAP1), wild type, N2-fused [human] / LYN, N1-fused [not stated] (parent)
chain 1: B1 chain 1
chain 2: MGCIKSKGKDSLSDDGVDLKTQPVRNTERTIYVRDPTSNKQQRPVPESQLLPGQRFQTKDPEEQGDIVVALYPYDGIHPDDLSFKKGEKMKVLEEHGEWWKAKSLLTKKEGFIPSNYVAKLNTLETEEWFFKDITRKDAERQLLAPGNSAGAFLIRESETLKGSFSLSVRDFDPVHGDVIKHYKIRSLDNGGYYISPRITFPCISDMIKHYQKQADGLCRRLEKACISPKPQKPWDKDAWEIPRESIKLVKRLGAGQFGEVWMGYYNNSTKVAVKTLKPGTMSVQAFLEEANLMKTLQHDKLVRLYAVVTREEPIYIITEYMAKGSLLDFLKSDEGGKVLLPKLIDFSAQIAEGMAYIERKNYIHRDLRAANVLVSESLMCKIADFGLARVIEDNEYTAREGAKFPIKWTAPEAINFGCFTIKSDVWSFGILLYEIVTYGKIPYPGRTNADVMTALSQGYRMPRVENCPDELYDIMKMCWKEKAEERPTFDYLQSVLDDFYTATEGQYQQQP

Variants of: B1
Assay: luciferase complementation assay (normalized luciferase ratio, NLR)
Conditions: with FRK, HEK293T cells, one experiment, read off a plot

ratio to parent	Variant
0.84	chain 1 MQAAALPEEIRWLLEDAEEFLAEGLRNENLSAVARDHRDHILRGFQQIKARYYWDFQPQGGDIGQDSSDDNHSGTLGLSLTSDAPFLSDYQDEGMEDIVKGAQELDNVIKQGYLEKKSKDHSFFGSEWQKRWCVVSRGLFYYYANEKSKQPKGTFLIKGYGVRMAPHLRRDSKKESCFELTSQDRRSYEFTATSPAEARDWVDQISFLLKDLSSLTIPYEEDEEEEEKEETYDDIDGFDSPSCGSQCRPTILPGSVGIKEPTEEKEEEDIYEVLPDEEHDLEEDESGTRRKGVDYASYYQGLWDCHGDQPDELSFQRGDLIRILSKEYNMYGKWVGELNSLVGIVPKEYLTTAFEVEER [chain 1 W333K]
1	chain 1 MQAAALPEEIRWLLEDAEEFLAEGLRNENLSAVARDHRDHILRGFQQIKARYYWDFQPQGGDIGQDSSDDNHSGTLGLSLTSDAPFLSDYQDEGMEDIVKGAQELDNVIKQGYLEKKSKKHSFFGSEWQKRWCVVSRGLFYYYANEKSKQPKGTFLIKGYGVRMAPHLRRDSKKESCFELTSQDRRSYEFTATSPAEARDWVDQISFLLKDLSSLTIPYEEDEEEEEKEETYDDIDGFDSPSCGSQCRPTILPGSVGIKEPTEEKEEEDIYEVLPDEEHDLEEDESGTRRKGVDYASYYQGLWDCHGDQPDELSFQRGDLIRILSKEYNMYGWWVGELNSLVGIVPKEYLTTAFEVEER [chain 1 D120K]

Variants of: B2
Assay: as above
Conditions: with SRMS, HEK293T cells, one experiment, read off a plot

ratio to parent	Variant
1.2	chain 1 MQAAALPEEIRWLLEDAEEFLAEGLRNENLSAVARDHRDHILRGFQQIKARYYWDFQPQGGDIGQDSSDDNHSGTLGLSLTSDAPFLSDYQDEGMEDIVKGAQELDNVIKQGYLEKKSKDHSFFGSEWQKRWCVVSRGLFYYYANEKSKQPKGTFLIKGYGVRMAPHLRRDSKKESCFELTSQDRRSYEFTATSPAEARDWVDQISFLLKDLSSLTIPYEEDEEEEEKEETYDDIDGFDSPSCGSQCRPTILPGSVGIKEPTEEKEEEDIYEVLPDEEHDLEEDESGTRRKGVDYASYYQGLWDCHGDQPDELSFQRGDLIRILSKEYNMYGKWVGELNSLVGIVPKEYLTTAFEVEER [chain 1 W333K]

Variants of: B3
Assay: as above
Conditions: with LYN, HEK293T cells, one experiment, read off a plot

ratio to parent	Variant
1.4	chain 1 D120K
1.8	chain 1 W333K
